Assay results as given in US20160024208A1 (Regeneron, published 2016).
Residue numbers refer to the chain shown, from its start.

T1: N-Term Biotin-Nav1.7 (3-3) peptide, human (same sequence of EC3-3 for mulatta) (human (same sequence of EC3-3 for …, not fully specified; N-terminal biotin attached via a G4S linker)
T1 construct: ELISA peptide
T1 peptide: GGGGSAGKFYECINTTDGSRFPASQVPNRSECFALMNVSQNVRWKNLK

T2: C-Term Biotin Nav1.7 (3-3) peptide, mouse (mouse, C-terminal biotin attached via a G4S linker)
T2 construct: Synthetic peptide; also called Mouse Nav1.7 3-3 C-term biotin
T2 peptide: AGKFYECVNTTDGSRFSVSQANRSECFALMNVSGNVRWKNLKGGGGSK

T3: Native Nav1.7 (3-3) peptide, human (human)
T3 construct: Synthetic peptide, unbiotinylated; also called Human Nav1.7 3-3 native; Nav1.7 3-3 native peptide
T3 peptide: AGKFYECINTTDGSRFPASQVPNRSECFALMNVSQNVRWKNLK

B1: H1M797N (antibody, V domains shown)
VH: QVQLVESGGGVVQPGRSLRLSCAASGFTFSSYGMHWVRQAPGKGLEWVAVISYDGNNKHFADSVKGRFTISRDNSKNTLNLQMNSLRAEDRAVYYCARGASGFVLDIWGQGTMVTVSS
VL: DIVMTQTPLSSPVTLGQPASISCRSSQSLVRSDGNTYLSWLQQRPGQPPRLLIYKISNRFSGVPDRFSGSGAGTDFTLKISRVEAEDVGIYFCMQTTQFPFTFGPGTKVDIK
B2: H1M801N (antibody, V domains shown)
VH: QVQVVESGGGVVQPGRSLRLSCAASGFTFSNYGMHWVRQAPGKGLEWVTVISYDGSNKNYADSVKGRFTISRDNSKNTLYLQMNSLRAEDTAMYYCARGGSGFAFDIWGQGTMVTVSS
VL: B1 VL with E86D, I90V, F92Y
notes: also called H1H801N
B3: H1M852N (antibody, V domains shown)
VH: QVQLVESGGGVVQPGRSLTLSCAASGFMFNRFGMHWVRQAPGKGLDWVAVIWYDGSNKYYADSVKGRFTISRDNSKNTLYLQVNSLRAEDTAVYYCAREGTPHYYDSSGLDYWGQGTLVTVSS
VL: AIQMTQSPSSLSAYVGDRVTITCRASQDIRNDLGWYQQKPGKAPNLLIYDISSLQSGVPSRFSGSGSGTDFTLTISSLQPEDFATYYCLQDYNYPLTFGGGTKVEIK
notes: constant region may differ; also called H4H852N
B4: H1M879N (antibody, V domains shown)
VH: EVQLVESGGGLVKPGGSLRLSCAASGFTFSSYTIHWVRQAPGKGLEWVSSISSSSSYIYYVDSVKGRFTISRDNAKNSVYLQMNSLRAEDTAVYYCATSSITARGYFDYWGQGTLVTVSS
VL: EIVLTQSPATLSLSPGERVTLSCRASQSVSSYLAWYQQKPGQAPRLLIYDASNRATGIPARFSGSGSGTDFTLTISSLEPEDFAVYYCQQRNIWPPTFGQGTKVEIK
notes: Hybridoma-derived
B5: H1M836N (antibody, V domains shown)
VH: QVQLVESGGGVVQPGRSLRLSCAASGFTFSSYGMHWVRQAPGKGLEWVAVISYDGNNKYYADSVKGRFTISRDNSKNTLYLQMNSLRAEDTAVYYCAKGSAGYALDYWGQGTLVTVSS
VL: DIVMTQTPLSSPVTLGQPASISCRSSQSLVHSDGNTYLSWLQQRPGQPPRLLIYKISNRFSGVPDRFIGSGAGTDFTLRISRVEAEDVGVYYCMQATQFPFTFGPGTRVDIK

What was measured:
[1] = target: T4, full-length human Nav1.7 fused at its N-terminus to GFP, expressed in HEK293 cells (human, UniProt Q15858 1-1988); experiment: flow cytometry on Nav1.7-GFP-HEK293, antibody 3.3 nM preincubated with 3.3 uM EC 3-1 peptide as competitor
T4 construct: Voltage-gated sodium channel alpha subunit; In the Western blot it stood as denatured cell lysate; also called hNav 1.7-GFP-HEK293; Nav 1.7-GFP-HEK293; not shown: green fluorescent protein (GFP) at the N-terminus
Method: The specificity of binding of anti-Naᵥ 1.7 human antibodies to full-length Naᵥ 1.7 expressed in HEK293 cells was determined by peptide competition experiments using flow cytometry.
HEK293 cells stably-transfected with full-length Naᵥ 1.7 fused at its N-terminus to GFP (Naᵥ 1.7-GFP-HEK293) were used for this study. Antibody binding to the transfected cells overexpressing Naᵥ 1.7 was compared to binding in the presence of excess peptide and to binding to the parental HEK293 cell line. To perform the binding experiments, adherent cells were collected using 1 mM EDTA in PBS, washed and re-suspended in cold PBS containing 5% FBS. For each binding experiment the anti-Naᵥ 1.7 antibody at a final concentration of 3.3 nM (in PBS/5% FBS) was added to cells either directly or after incubating for 10 min on ice with a 1000-fold molar excess (3.3 uM final concentration in PBS/5% FBS) of synthetic peptide with sequence corresponding to the loop specificity of the antibody. The antibodies designated as H4H391P, H4H443B, H4H448B, and H1M797N were preincubated as described above with a synthetic peptide corresponding to EC loop 3-1 (amino acid residues 269-338 of SEQ ID NO: 670), whereas the antibodies designated as H4H468P and H1 M852N were preincubated with a synthetic peptide corresponding to EC loop 3-3 (amino acid residues 1333-1382 of SEQ ID NO: 670). The antibody or antibody-peptide mixture was then allowed to incubate with cells for 20 min on ice, followed by addition of 500 uL of cold PBS/5% FBS. Cells were collected by centrifugation, resuspended in 500 uL of cold PBS/5% FBS, and then secondary antibody matched to the antibody isotype (either anti-human-Fc conjugated to Cyanine 5 or anti-mouse-Fc conjugated to allophyococyanin) was added. Binding was detected on the flow cytometry instrument and analyzed as percent binding using the instrument software. For FACS analysis appropriate gating was applied so that only healthy, live cells were counted. Background staining of secondary antibodies alone to Naᵥ 1.7-GFP-HEK293 cells was tested and recorded for all samples, and results ranged between 1-2% binding.

[2] = target: T1, N-Term Biotin-Nav1.7 (3-3) peptide, …; experiment: ELISA on coated peptide, antibody 1 ug/ml, OD450 grade; Human
Method: (§1) Anti-Naᵥ 1.7 antibodies were tested for their ability to bind to the Naᵥ 1.7 peptides. The various peptides were coated overnight onto 96-well Nunc Immunosorp plates at a concentration of 4 μg/mL in PBS, followed by blocking for 1 hour in a suitable blocking agent. For biotinylated peptides, avidin was first coated on Nunc Immunosorp plates at 2 μg/mL in PBS overnight, followed by blocking as described, and the plate was then coated with biotinylated peptides at a concentration of 0.4 μg/mL and incubated for 1 hour at room temperature. Purified anti-Naᵥ 1.7 antibodies were diluted to a final concentration of 0.1 μg/mL and 1.0 μg/mL and added to the wells of the coated microtiter plates followed by incubation for 1 hour at room temperature. Bound antibodies were detected with horseradish peroxidase (HRP) conjugated anti-mouse or anti-human IgG (Jackson Immuno Research Lab, West Grove, Pa.) depending on the antibody species and developed by colorimetric response using tetramethylbenzidine (TMB) substrate (BD Biosciences). Absorbance was read at OD₄₅₀ on a plate reader for 0.1 second.
(§2) Values in Table 11 represent absolute binding ranges (at OD450) to plate-coated peptides for antibodies added at 1 μg/ml as follows: OD450<0.2: −; 0.2<OD450<1: +; 1<OD450<2: ++; 2<OD450<4: +++; NT: Not Tested.

[3] = target: T1, N-Term Biotin-Nav1.7 (3-3) peptide, …; experiment: ELISA on coated peptide, antibody 1 ug/ml, OD450 grade; Monkey column
Method: as §1, §2

[4] = target: T2, C-Term Biotin Nav1.7 (3-3) peptide, …; experiment: SPR, captured antibody, peptide analyte
Summary of the method: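 Biacore SPR: antibody captured via Fc on anti-Fc surface, Nav1.7 loop peptides injected as analyte at several concentrations. Double-referenced sensorgrams globally fitted to a 1:1 model; KD = kd/ka, t1/2 = ln2/kd.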

[5] = target: T3, Native Nav1.7 (3-3) peptide, human; experiment: Biacore (second token of ELISA/Biacore summary)

| Binder | % Binding Nav1.7 + 1000x Peptide (Competition Binding) [1] [%] | other results |
| --- | --- | --- |
| B1 | 10.8 |  |
| B2 | 1.9 |  |
| B3 |  | OD450 [2]: 1 to 2 od; OD450 [3]: 1 to 2 od; binding result [4]: no binding; Kd [5]: > 200 nM |
| B4 | 1.3 |  |
| B5 | 2.2 |  |
